From article doi:10.1101/2020.09.30.318261 (bioRxiv, 2020)

Assays:
Test in all cases: ELISA
[1] = biological target: SARS-CoV-2 spike S1B domain (receptor binding domain) (SARS-CoV-2 Wuhan-Hu-1, UniProt P0DTC2)
[2] = biological target: SARS-CoV spike S1B domain (receptor binding domain) (SARS-CoV Urbani, UniProt P59594)
[3] = biological target: WIV16 spike receptor binding domain (S1B domain) (SARS-like coronavirus WIV16, strain)

Measured: binding result

B1: human monoclonal antibody 47D11 (antibody, V domains shown)
VH: QVQLQESGPGLVKPSETLSLTCSVSGGSISSHYWSWIRQPPGKGLEWIGYIYYSGSTNHNPSLKSRVTISVDTSKNQFSLKLSSVTAADTAVYYCARGVLLWFGEPIFEIWGQGTMVTVSS
VL: EIVMTQSPATLSVSPGERATLSCRASQSVSSSLAWYQQKPGQAPRLLIYGASTRAPGIPARFSGSGSGTEFTLTISSLQSEDFAVYYCQQYNNWPLTFGGGTKVEI
binds: all assays above
